From patent publication US20260242735A1 (UNIVERSIT T BASEL, published 2026)

Assays:
Assay in all cases: alanine scan, flow cytometry, HEK293-T;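 note: antibody binding to each alanine-substituted CD33 mutant expressed transiently in HEK293-T, read as fluorescence minus background, mean of duplicates, relative to wild-type CD33 set as 100%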
human CD33 L78A = human CD33 L78A (human, UniProt P20138 18-364)
human CD33 V73A = human CD33 V73A (human, UniProt P20138 18-364)
human CD33 R119A = human CD33 R119A (human, UniProt P20138 18-364)
human CD33 Y50A = human CD33 Y50A (human, UniProt P20138 18-364)
human CD33 Q83A = human CD33 Q83A (human, UniProt P20138 18-364)
human CD33 D79A = human CD33 D79A (human, UniProt P20138 18-364)
human CD33 F117A = human CD33 F117A (human, UniProt P20138 18-364)
human CD33 R110A = human CD33 R110A (human, UniProt P20138 18-364)
human CD33 N53A = human CD33 N53A (human, UniProt P20138 18-364)
human CD33 S71A = human CD33 S71A (human, UniProt P20138 18-364)
human CD33 E84A = human CD33 E84A (human, UniProt P20138 18-364)
human CD33 R62A = human CD33 R62A (human, UniProt P20138 18-364)
human CD33 P46A = human CD33 P46A (human, UniProt P20138 18-364)
human CD33 D107A = human CD33 D107A (human, UniProt P20138 18-364)
human CD33 D51A = human CD33 D51A (human, UniProt P20138 18-364)
human CD33 S68A = human CD33 S68A (human, UniProt P20138 18-364)
human CD33 L161A = molecular target: T1, human CD33 L161A (human, UniProt P20138 18-364)
T1 construct: alanine scan clone, transfected HEK293-T

human CD33 Q133A = molecular target: T2, human CD33 Q133A (human, UniProt P20138 18-364)
T2 construct: alanine scan clone, transfected HEK293-T

human CD33 C169A = molecular target: T3, human CD33 C169A (human, UniProt P20138 18-364)
T3 construct: alanine scan clone, transfected HEK293-T

human CD33 V138A = molecular target: T4, human CD33 V138A (human, UniProt P20138 18-364)
T4 construct: alanine scan clone, transfected HEK293-T

human CD33 W167A = molecular target: T5, human CD33 W167A (human, UniProt P20138 18-364)
T5 construct: alanine scan clone, transfected HEK293-T

human CD33 Q171A = molecular target: T6, human CD33 Q171A (human, UniProt P20138 18-364)
T6 construct: alanine scan clone, transfected HEK293-T

human CD33 S166A = molecular target: T7, human CD33 S166A (human, UniProt P20138 18-364)
T7 construct: alanine scan clone, transfected HEK293-T

human CD33 P174A = molecular target: T8, human CD33 P174A (human, UniProt P20138 18-364)
T8 construct: alanine scan clone, transfected HEK293-T

human CD33 G123A = molecular target: T9, human CD33 G123A (human, UniProt P20138 18-364)
T9 construct: alanine scan clone, transfected HEK293-T

human CD33 K159A = molecular target: T10, human CD33 K159A (human, UniProt P20138 18-364)
T10 construct: alanine scan clone, transfected HEK293-T

human CD33 R122A = molecular target: T11, human CD33 R122A (human, UniProt P20138 18-364)
T11 construct: alanine scan clone, transfected HEK293-T

human CD33 T191A = molecular target: T12, human CD33 T191A (human, UniProt P20138 18-364)
T12 construct: alanine scan clone, transfected HEK293-T

human CD33 K146A = molecular target: T13, human CD33 K146A (human, UniProt P20138 18-364)
T13 construct: alanine scan clone, transfected HEK293-T

human CD33 A168S = molecular target: T14, human CD33 A168S (human, UniProt P20138 18-364)
T14 construct: alanine scan clone, transfected HEK293-T

human CD33 H157A = molecular target: T15, human CD33 H157A (human, UniProt P20138 18-364)
T15 construct: alanine scan clone, transfected HEK293-T

human CD33 S135A = molecular target: T16, human CD33 S135A (human, UniProt P20138 18-364)
T16 construct: alanine scan clone, transfected HEK293-T

human CD33 G188A = molecular target: T17, human CD33 G188A (human, UniProt P20138 18-364)
T17 construct: alanine scan clone, transfected HEK293-T

human CD33 E170A = molecular target: T18, human CD33 E170A (human, UniProt P20138 18-364)
T18 construct: alanine scan clone, transfected HEK293-T

human CD33 A182S = molecular target: T19, human CD33 A182S (human, UniProt P20138 18-364)
T19 construct: alanine scan clone, transfected HEK293-T

human CD33 T173A = molecular target: T20, human CD33 T173A (human, UniProt P20138 18-364)
T20 construct: alanine scan clone, transfected HEK293-T
T20 sequence (P20138 18-364 T173A limits assumed): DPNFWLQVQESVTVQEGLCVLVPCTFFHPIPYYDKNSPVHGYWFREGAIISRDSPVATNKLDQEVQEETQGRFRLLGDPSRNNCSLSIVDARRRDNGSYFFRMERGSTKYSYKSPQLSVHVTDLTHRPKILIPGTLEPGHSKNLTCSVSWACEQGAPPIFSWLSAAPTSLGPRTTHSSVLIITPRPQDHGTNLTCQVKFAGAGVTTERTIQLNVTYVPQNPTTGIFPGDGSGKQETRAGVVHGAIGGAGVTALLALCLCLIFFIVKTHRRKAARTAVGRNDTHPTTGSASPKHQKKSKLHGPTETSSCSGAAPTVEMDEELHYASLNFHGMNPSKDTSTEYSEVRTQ

human CD33 Y50A, sequence (P20138 18-364 Y50A limits assumed): as the sequence (P20138 18-364 T173A limits assumed) above, with Y33A, A156T counted along it
human CD33 S68A, sequence (P20138 18-364 S68A limits assumed): as the sequence (P20138 18-364 T173A limits assumed) above, with S51A, A156T counted along it
T8 sequence (P20138 18-364 P174A limits assumed): as the sequence (P20138 18-364 T173A limits assumed) above, with A156T, P157A counted along it
T1 sequence (P20138 18-364 L161A limits assumed): as the sequence (P20138 18-364 T173A limits assumed) above, with L144A, A156T counted along it
human CD33 E84A, sequence (P20138 18-364 E84A limits assumed): as the sequence (P20138 18-364 T173A limits assumed) above, with E67A, A156T counted along it
T14 sequence (P20138 18-364 A168S limits assumed): as the sequence (P20138 18-364 T173A limits assumed) above, with A151S, A156T counted along it
human CD33 R119A, sequence (P20138 18-364 R119A limits assumed): as the sequence (P20138 18-364 T173A limits assumed) above, with R102A, A156T counted along it
T6 sequence (P20138 18-364 Q171A limits assumed): as the sequence (P20138 18-364 T173A limits assumed) above, with Q154A, A156T counted along it
human CD33 N53A, sequence (P20138 18-364 N53A limits assumed): as the sequence (P20138 18-364 T173A limits assumed) above, with N36A, A156T counted along it
T17 sequence (P20138 18-364 G188A limits assumed): as the sequence (P20138 18-364 T173A limits assumed) above, with A156T, G171A counted along it
T5 sequence (P20138 18-364 W167A limits assumed): as the sequence (P20138 18-364 T173A limits assumed) above, with W150A, A156T counted along it
T2 sequence (P20138 18-364 Q133A limits assumed): as the sequence (P20138 18-364 T173A limits assumed) above, with Q116A, A156T counted along it
T18 sequence (P20138 18-364 E170A limits assumed): as the sequence (P20138 18-364 T173A limits assumed) above, with E153A, A156T counted along it
T15 sequence (P20138 18-364 H157A limits assumed): as the sequence (P20138 18-364 T173A limits assumed) above, with H140A, A156T counted along it
T13 sequence (P20138 18-364 K146A limits assumed): as the sequence (P20138 18-364 T173A limits assumed) above, with K129A, A156T counted along it
human CD33 P46A, sequence (P20138 18-364 P46A limits assumed): as the sequence (P20138 18-364 T173A limits assumed) above, with P29A, A156T counted along it
human CD33 F117A, sequence (P20138 18-364 F117A limits assumed): as the sequence (P20138 18-364 T173A limits assumed) above, with F100A, A156T counted along it
human CD33 Q83A, sequence (P20138 18-364 Q83A limits assumed): as the sequence (P20138 18-364 T173A limits assumed) above, with Q66A, A156T counted along it
human CD33 S71A, sequence (P20138 18-364 S71A limits assumed): as the sequence (P20138 18-364 T173A limits assumed) above, with S54A, A156T counted along it
T9 sequence (P20138 18-364 G123A limits assumed): as the sequence (P20138 18-364 T173A limits assumed) above, with G106A, A156T counted along it
human CD33 D51A, sequence (P20138 18-364 D51A limits assumed): as the sequence (P20138 18-364 T173A limits assumed) above, with D34A, A156T counted along it
T3 sequence (P20138 18-364 C169A limits assumed): as the sequence (P20138 18-364 T173A limits assumed) above, with C152A, A156T counted along it
T19 sequence (P20138 18-364 A182S limits assumed): as the sequence (P20138 18-364 T173A limits assumed) above, with A156T, A165S counted along it
human CD33 D107A, sequence (P20138 18-364 D107A limits assumed): as the sequence (P20138 18-364 T173A limits assumed) above, with D90A, A156T counted along it
T4 sequence (P20138 18-364 V138A limits assumed): as the sequence (P20138 18-364 T173A limits assumed) above, with V121A, A156T counted along it
T12 sequence (P20138 18-364 T191A limits assumed): as the sequence (P20138 18-364 T173A limits assumed) above, with A156T, T174A counted along it
human CD33 V73A, sequence (P20138 18-364 V73A limits assumed): as the sequence (P20138 18-364 T173A limits assumed) above, with V56A, A156T counted along it
human CD33 L78A, sequence (P20138 18-364 L78A limits assumed): as the sequence (P20138 18-364 T173A limits assumed) above, with L61A, A156T counted along it
T7 sequence (P20138 18-364 S166A limits assumed): as the sequence (P20138 18-364 T173A limits assumed) above, with S149A, A156T counted along it
T10 sequence (P20138 18-364 K159A limits assumed): as the sequence (P20138 18-364 T173A limits assumed) above, with K142A, A156T counted along it
human CD33 R62A, sequence (P20138 18-364 R62A limits assumed): as the sequence (P20138 18-364 T173A limits assumed) above, with R45A, A156T counted along it
T16 sequence (P20138 18-364 S135A limits assumed): as the sequence (P20138 18-364 T173A limits assumed) above, with S118A, A156T counted along it
human CD33 D79A, sequence (P20138 18-364 D79A limits assumed): as the sequence (P20138 18-364 T173A limits assumed) above, with D62A, A156T counted along it
human CD33 R110A, sequence (P20138 18-364 R110A limits assumed): as the sequence (P20138 18-364 T173A limits assumed) above, with R93A, A156T counted along it
T11 sequence (P20138 18-364 R122A limits assumed): as the sequence (P20138 18-364 T173A limits assumed) above, with R105A, A156T counted along it

Binder | Mean % WT Binding (human CD33 L78A) | Mean % WT Binding (human CD33 V73A) | Mean % WT Binding (human CD33 R119A) | Mean % WT Binding (human CD33 Y50A) | Mean % WT Binding (human CD33 Q83A) | Mean % WT Binding (human CD33 D79A) | Mean % WT Binding (human CD33 F117A) | Mean % WT Binding (human CD33 R110A) | Mean % WT Binding (human CD33 N53A) | Mean % WT Binding (human CD33 S71A) | Mean % WT Binding (human CD33 E84A) | Mean % WT Binding (human CD33 R62A) | Mean % WT Binding (human CD33 P46A) | Mean % WT Binding (human CD33 D107A) | Mean % WT Binding (human CD33 D51A) | Mean % WT Binding (human CD33 S68A) | Mean % WT Binding (human CD33 L161A) | Mean % WT Binding (human CD33 Q133A) | Mean % WT Binding (human CD33 C169A) | Mean % WT Binding (human CD33 V138A) | other results
Refmab #6 (antibody, V domains shown, Full-length format is human IgG1 Fc silent (PG-LALA); also made as Fab; The alanine scan used IgG or Fab) VH: QVQLQQPGAEVVKPGASVKMSCKASGYTFTSYYIHWIKQTPGQGLEWVGVIYPGNDDISYNQKFQGKATLTADKSSTTAYMQLSSLTSEDSAVYYCAREVRLRYFDVWGQGTTVTVSS VL: EIVLTQSPGSLAVSPGERVTMSCKSSQSVFFSSSQKNYLAWYQQIPGQSPRLLIYWASTRESGVPDRFTGSGSGTDFTLTISSVQPEDLAIYYCHQYLSSRTFGQGTKLEIK | 110 % WT binding | 77.7 % WT binding | 123 % WT binding | 113 % WT binding | 108 % WT binding | 78.2 % WT binding | 90.3 % WT binding | 98.4 % WT binding | 96.8 % WT binding | 99.4 % WT binding | 97.4 % WT binding | 106 % WT binding | 49.3 % WT binding | 96.5 % WT binding | 61.7 % WT binding | 86.4 % WT binding | – | – | – | – | –
Refmab #6 (antibody, V domains shown, The alanine scan used IgG or Fab) VH: QVQLQQPGAEVVKPGASVKMSCKASGYTFTSYYIHWIKQTPGQGLEWVGVIYPGNDDISYNQKFQGKATLTADKSSTTAYMQLSSLTSEDSAVYYCAREVRLRYFDVWGQGTTVTVSS VL: EIVLTQSPGSLAVSPGERVTMSCKSSQSVFFSSSQKNYLAWYQQIPGQSPRLLIYWASTRESGVPDRFTGSGSGTDFTLTISSVQPEDLAIYYCHQYLSSRTFGQGTKLEIK | – | – | – | – | – | – | – | – | – | – | – | – | – | – | – | – | 100 % WT binding | 88.3 % WT binding | 76.2 % WT binding | 65.4 % WT binding | Mean % WT Binding (human CD33 W167A): 90.5 % WT binding; Mean % WT Binding (human CD33 Q171A): 99.6 % WT binding; Mean % WT Binding (human CD33 S166A): 108 % WT binding; Mean % WT Binding (human CD33 P174A): 103 % WT binding; Mean % WT Binding (human CD33 G123A): 94.1 % WT binding; Mean % WT Binding (human CD33 K159A): 123 % WT binding; Mean % WT Binding (human CD33 R122A): 106 % WT binding; Mean % WT Binding (human CD33 T191A): 88.5 % WT binding; Mean % WT Binding (human CD33 K146A): 116 % WT binding; Mean % WT Binding (human CD33 A168S): 100 % WT binding; Mean % WT Binding (human CD33 H157A): 96.3 % WT binding; Mean % WT Binding (human CD33 S135A): 110 % WT binding; Mean % WT Binding (human CD33 G188A): 100 % WT binding; Mean % WT Binding (human CD33 E170A): 89.5 % WT binding; Mean % WT Binding (human CD33 A182S): 93.9 % WT binding; Mean % WT Binding (human CD33 T173A): 98.9 % WT binding
Refmab #5 (antibody, V domains shown, Full-length format is human IgG1 Fc silent (PG-LALA); also made as Fab; The alanine scan used IgG or Fab) VH: QVQLVQSGAEVKKPGASVKVSCKASGYTFTNYDINWVRQAPGQGLEWIGWIYPGDGSTKYNEKFKAKATLTADTSTSTAYMELRSLRSDDTAVYYCASGYEDAMDYWGQGTTVTVSS VL: DIQMTQSPSSLSASVGDRVTINCKASQDINSYLSWFQQKPGKAPKTLIYRANRLVDGVPSRFSGSGSGQDYTLTISSLQPEDFATYYCLQYDEFPLTFGGGTKVEIK | 99.3 % WT binding | 112 % WT binding | 167 % WT binding | 55.7 % WT binding | 97 % WT binding | 91.3 % WT binding | 113 % WT binding | 125 % WT binding | 97.6 % WT binding | 150 % WT binding | 141 % WT binding | 123 % WT binding | 79.1 % WT binding | 119 % WT binding | 105 % WT binding | 142 % WT binding | – | – | – | – | –
Refmab #5 (antibody, V domains shown, The alanine scan used IgG or Fab) VH: QVQLVQSGAEVKKPGASVKVSCKASGYTFTNYDINWVRQAPGQGLEWIGWIYPGDGSTKYNEKFKAKATLTADTSTSTAYMELRSLRSDDTAVYYCASGYEDAMDYWGQGTTVTVSS VL: DIQMTQSPSSLSASVGDRVTINCKASQDINSYLSWFQQKPGKAPKTLIYRANRLVDGVPSRFSGSGSGQDYTLTISSLQPEDFATYYCLQYDEFPLTFGGGTKVEIK | – | – | – | – | – | – | – | – | – | – | – | – | – | – | – | – | 130 % WT binding | 112 % WT binding | 101 % WT binding | 101 % WT binding | Mean % WT Binding (human CD33 W167A): 95.5 % WT binding; Mean % WT Binding (human CD33 Q171A): 105 % WT binding; Mean % WT Binding (human CD33 S166A): 114 % WT binding; Mean % WT Binding (human CD33 P174A): 118 % WT binding; Mean % WT Binding (human CD33 G123A): 67.5 % WT binding; Mean % WT Binding (human CD33 K159A): 148 % WT binding; Mean % WT Binding (human CD33 R122A): 85.7 % WT binding; Mean % WT Binding (human CD33 T191A): 115 % WT binding; Mean % WT Binding (human CD33 K146A): 149 % WT binding; Mean % WT Binding (human CD33 A168S): 103 % WT binding; Mean % WT Binding (human CD33 H157A): 102 % WT binding; Mean % WT Binding (human CD33 S135A): 108 % WT binding; Mean % WT Binding (human CD33 G188A): 114 % WT binding; Mean % WT Binding (human CD33 E170A): 110 % WT binding; Mean % WT Binding (human CD33 A182S): 103 % WT binding; Mean % WT Binding (human CD33 T173A): 101 % WT binding
